Target: the molecule itself
Assay: crystal structure

B1: auto-phosphorylated minimal dual catalytic domain fragment of murine IRE1α encompassing residues 549 to 977 (domain or fragment, mouse, UniProt Q9EQY0 549-977, looked up)
chain: SPSLEQDDEDEETRMVIVGKISFCPKDVLGHGAEGTIVYKGMFDNRDVAVKRILPECFSFADREVQLLRESDEHPNVIRYFCTEKDRQFQYIAIELCAATLQEYVEQKDFAHLGLEPITLLHQTTSGLAHLHSLNIVHRDLKPHNILLSMPNAHGRIKAMISDFGLCKKLAVGRHSFSRRSGVPGTEGWIAPEMLSEDCKDNPTYTVDIFSAGCVFYYVISEGYHPFGKSLQRQANILLGACNLDCFHSDKHEDVIARELIEKMIAMDPQQRPSAKHVLKHPFFWSLEKQLQFFQDVSDRIEKEALDGPIVRQLERGGRAVVKMDWRENITVPLQTDLRKFRTYKGGSVRDLLRAMRNKKHHYRELPVEVQETLGSIPDDFVRYFTSRFPHLLSHTYQAMELCRHERLFQTYYWHEPTEPQPPVIPYAL
modifications: auto-phosphorylated (sites not given)
  binding result: binds
